Assay results reported in US20150307546A1.
Several values for one entry are separate records, joined by “and”; a condition that tells them apart may be missing. Equal values may be shown once.

Target: horseradish peroxidase (HRP) (horseradish) (UniProt P00433)
Test: affinity precipitation at varied ligand to HRP ratio; peroxidase activity assay

Chain of UniProt P00433 (P00433 31-338): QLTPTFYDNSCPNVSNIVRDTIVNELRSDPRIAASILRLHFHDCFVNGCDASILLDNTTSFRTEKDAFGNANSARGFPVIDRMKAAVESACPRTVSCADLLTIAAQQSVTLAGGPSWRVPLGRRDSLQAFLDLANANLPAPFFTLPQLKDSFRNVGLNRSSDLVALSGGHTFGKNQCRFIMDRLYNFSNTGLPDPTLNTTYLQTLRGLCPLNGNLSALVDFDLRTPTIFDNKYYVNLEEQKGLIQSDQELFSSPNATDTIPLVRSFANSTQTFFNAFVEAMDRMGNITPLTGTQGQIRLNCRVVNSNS

Substance: RSL-ELP40 (fucose lectin from Ralstonia solanacearum fused by a 10 amino acid glycine rich linker to (designed binder)
- molar excess of ligand at which full recovery was approached (mol ligand per mol HRP): 15 and 20
